In IntAct's records for PubMed 23933751:

B1: F-box only protein 7 (Homo sapiens), Q9Y3I1 (parent)
chain: MRLRVRLLKRTWPLEVPETEPTLGHLRSHLRQSLLCTWGYSSNTRFTITLNYKDPLTGDEETLASYGIVSGDLICLILQDDIPAPNIPSSTDSEHSSLQNNEQPSLATSSNQTSMQDEQPSDSFQGQAAQSGVWNDDSMLGPSQNFEAESIQDNAHMAEGTGFYPSEPMLCSESVEGQVPHSLETLYQSADCSDANDALIVLIHLLMLESGYIPQGTEAKALSMPEKWKLSGVYKLQYMHPLCEGSSATLTCVPLGNLIVVNATLKINNEIRSVKRLQLLPESFICKEKLGENVANIYKDLQKLSRLFKDQLVYPLLAFTRQALNLPDVFGLVVLPLELKLRIFRLLDVRSVLSLSAVCRDLFTASNDPLLWRFLYLRDFRDNTVRVQDTDWKELYRKRHIQRKESPKGRFVMLLPSSTHTIPFYPNPLHPRPFPSSRLPPGIIGGEYDQRPTLPYVGDPISSLIPGPGETPSQFPPLRPRFDPVGPLPGPNPILPGRGGPNDRFPFRPSRGRPTDGRLSFM

Variants of: B1
Conditions: with prkn_human PRKN

Variant | effect of a mutation on the interaction
MRLRVRLLKRTWPLEVPETEPMLGHLRSHLRQSLLCTWGYSSNTRFTITLNYKDPLTGDEETLASYGIVSGDLICLILQDDIPAPNIPSSTDSEHSSLQNNEQPSLATSSNQTSMQDEQPSDSFQGQAAQSGVWNDDSMLGPSQNFEAESIQDNAHMAEGTGFYPSEPMLCSESVEGQVPHSLETLYQSADCSDANDALIVLIHLLMLESGYIPQGTEAKALSMPEKWKLSGVYKLQYMHPLCEGSSATLTCVPLGNLIVVNATLKINNEIRSVKRLQLLPESFICKEKLGENVANIYKDLQKLSRLFKDQLVYPLLAFTRQALNLPDVFGLVVLPLELKLRIFRLLDVRSVLSLSAVCRDLFTASNDPLLWRFLYLRDFRDNTVRVQDTDWKELYRKRHIQRKESPKGRFVMLLPSSTHTIPFYPNPLHPRPFPSSRLPPGIIGGEYDQRPTLPYVGDPISSLIPGPGETPSQFPPLRPRFDPVGPLPGPNPILPGRGGPNDRFPFRPSRGRPTDGRLSFM [T22M] | disrupting interaction
